In the assay the target is ALG-2 delta3-23 (Homo sapiens, UniProt O75340, Ca2+). The assay is described as follows: ITC.
Chain of ALG-2 delta3-23 (O75340 3-23, stated change not applied): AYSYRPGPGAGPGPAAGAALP

B1: SOUL (protein)
chain: AEPLQPDPGAAEDAAAQAVETPGWKAPEDAGPQPGSYEIRHYGPAKWVSTSVESMDWDSAIQTGFTKLNSYIQGKNEKEMKIKMTAPVTSYVEPGSGPFSESTITISLYIPSEQQFDPPRPLESDVFIEDRAEMTVFVRSFDGFSSAQKNQEQLLTLASILREDGKVFDEKVYYTAGYNSPVKLLNRNNEVWLIQKNEPTKENE
With B1, binding was characterised by a dissociation constant (Kd) of 32.4 nM.

The term Kd denotes the concentration at which binding is half-saturated.

The record behind these values is publication PMC6321638 (2018).
